Data published in patent US20210405026A1 (CENTRE NATIONAL DE LA RECHERCHE SCIENTIFIQUE, published 2021).

Legend:
[1] = target: T1, recombinant human CD32b (human, UniProt P31994 46-217); test: ELISA on recombinant human CD32b, hybridoma screening
T1 sequence: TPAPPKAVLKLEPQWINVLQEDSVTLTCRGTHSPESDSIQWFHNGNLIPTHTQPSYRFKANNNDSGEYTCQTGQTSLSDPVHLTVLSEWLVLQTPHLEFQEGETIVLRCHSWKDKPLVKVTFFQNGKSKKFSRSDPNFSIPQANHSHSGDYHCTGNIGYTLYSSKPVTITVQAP
Source text: (§1) In order to develop a specific murine monoclonal antibody against Human CD32a using a peptide antigen […] (SEQ ID NO: 40), different criteria were taken into account when designing the peptide: (1) The peptide must not include residue # 167 submitted to a strong polymorphism; (2) The peptide should be specific for CD32a vs CD32b as much as possible to avoid cross-reactivity of anti-CD32a antibody with human CD32b. Thus, a first step was the selection, design and synthesis of a relevant peptide. In order to enhance the immune response, the peptide to carrier conjugation technique (KLH) was used. The peptide thus produced was used in the immunization of 5 mice with an optimized protocol of 45 to 74 days (4-6 injections). The immune response was monitored by bleeding and titration tests (ELISA against the peptide and recombinant human CD32a and CD32b in parallel). Following the results of these tests, the spleen cells from the best mouse were fused with a mouse myeloma cell line. The culture of the hybridomas obtained was carried out in selective medium before the screens for the selection at the polyclonal stage of specific hybridomas against the peptide in ELISA (10× 96-well plates). Further screening for clones positive against recombinant human CD32a and CD32b was performed in parallel. […]

[2] = target: T2, recombinant human CD32a (human, UniProt P12318 34-217); test: ELISA on recombinant human CD32a, hybridoma screening
T2 sequence: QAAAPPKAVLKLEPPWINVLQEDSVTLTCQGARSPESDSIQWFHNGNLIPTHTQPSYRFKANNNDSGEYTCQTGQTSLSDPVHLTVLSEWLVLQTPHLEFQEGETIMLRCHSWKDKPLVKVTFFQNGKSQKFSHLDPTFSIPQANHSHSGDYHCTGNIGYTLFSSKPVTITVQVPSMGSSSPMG
Source text: as §1

B1: murine monoclonal anti-human CD32a antibody from hybridoma 8E2 (antibody, V domains shown)
VH: EVKLQESGPSLVQPGGSMNLSCVASGFTFSTHWMSWVRQSPEKGLEWIAEIRLKTDNYATHYAESVKGLFTISRDDSKSRLYLQMKSLRTEDSGIYYCTTHFAYWGQGTLV
VL: DVVMAQSPLSLPVSLGDQASISCRSSQSLVDSHGNTYLHWYLQKPGQSPKLLIYKVANRFSGVPDRFSGSGSGTDFTLKISRVEAEDLGVYFCSQSTHVPPVTFGAGTKLELK
notes: Tested as hybridoma supernatant in the ELISA screens
- binding result [1]: no binding
- binding result [2]: binds
